In patent US20140017764:
Substitutions are numbered along the chain they refer to.

B1: TEV-PE10, purified (protein)
chain: HHHHHHSLFKGPRDYNPISSTICHLTNESDGHTTSLYGIGFGPFIITNKHLFRRNNGTLLVQSLHGVFKVKNTTTLQQHLIDGRDMIIIRMPKDFPPFPQKLKFREPQREERICLVTTNFQTKRMSSMVSDTSCTFPSSDGIFWKHWIQTKRGQCGSPLVSTRDGFIVGIHSASNFANTNKYFTSVPKNFMELLTNQEAQQWVSGWRLNADSVLWGGHKVFIPKPEEPFQPVKEATQLMN
B2: TEV-PH21, purified (protein)
chain: B1 chain with T21A, R124S, T150A, R152P, S157C, S172T, S174A, K181N, I222M
B3: wild-type TEV protease (TEV-P), purified (protein)
chain: B1 chain with R124S, R152D, A177T, K181N, I222M

The proteins below were run against […] peptide substrate.

Protein	KM	kcat	kcat/KM
B1	120 µM	0.0194 s⁻¹	160 M⁻¹ s⁻¹
B2	820 µM	0.0171 s⁻¹	20.7 M⁻¹ s⁻¹
B3	110 µM	0.13 s⁻¹	1200 M⁻¹ s⁻¹
